Reference: patent US20200405762A1 (published 2020)

T1: cyclin A1 (CCNA1), isoform 3 (SEQ ID NO:4) peptide on HLA-A*02:01 (human)
T1 peptide: YSLSEIVPCL

T2: cyclin A1 (CCNA1), isoform 3 (SEQ ID NO:4) peptide on HLA-A*02:01 (human)
T2 peptide: SLIAAAAFCLA

T3: cyclin A1 (CCNA1), isoform 3 (SEQ ID NO:4) peptide on HLA-A*02:01 (human)
T3 peptide: FLDRFLSCM


Legend:
Test in all cases: multimer staining
[1] = biological target: T1, cyclin A1 (CCNA1), isoform 3 (SEQ ID …)
[2] = biological target: T2, cyclin A1 (CCNA1), isoform 3 (SEQ ID …)
[3] = biological target: T3, cyclin A1 (CCNA1), isoform 3 (SEQ ID …)

binding result [3] | Binder | also measured
– | TCR #8 (TCR, V domains shown) Valpha: AQKVTQAQTEISVVEKEDVTLDCVYETRDTTYYLFWYKQPPSGELVFLIRRNSFDEQNEISGRYSWNFQKSTSSFNFTITASQVVDSAVYFCALSELASGGSYIPTFGRGTSLIVHP Vbeta: DAGVTQSPTHLIKTRGQQVTLRCSPKSGHDTVSWYQQALGQGPQFIFQYYEEEERQRGNFPDRFSGHQFPNYSSELNVNALLLGDSALYLCASSFRLAGGPSTDTQYFGPGTRLTVL | binding result [1]: recognises
– | TCR #7 (TCR, V domains shown) Valpha: ILNVEQSPQSLHVQEGDSTNFTCSFPSSNFYALHWYRWETAKSPEALFVMTLNGDEKKKGRISATLNTKEGYSYLYIKGSQPEDSATYLCAYLGAGNQFYFGTGTSLTVIP Vbeta: DGGITQSPKYLFRKEGQNVTLSCEQNLNHDAMYWYRQDPGQGLRLIYYSQIVNDFQKGDIAEGYSVSREKKESFPLTVTSAQKNPTAFYLCASSLNRGRYGYTFGSGTRLTVV | binding result [2]: recognises
recognises | TCR #3 (TCR, V domains shown) Valpha: QKEVEQNSGPLSVPEGAIASLNCTYSDRGSQSFFWYRQYSGKSPELIMSIYSNGDKEDGRFTAQLNKASQYVSLLIRDSQPSDSATYLCAVDSGGYQKVTFGTGTKLQVIP Vbeta: GAGVSQTPSNKVTEKGKYVELRCDPISGHTALYWYRQSLGQGPEFLIYFQGTGAADDSGLPNDRFFAVRPEGSVSTLKIQRTERGDSAVYLCASSLNMNTEAFFGQGTRLTVV | –
recognises | TCR #4 (TCR, V domains shown) Valpha: SQQGEEDPQALSIQEGENATMNCSYKTSINNLQWYRQNSGRGLVHLILIRSNEREKHSGRLRVTLDTSKKSSSLLITASRAADTASYFCATDAWESNFGNEKLTFGTGTRLTIIP Vbeta: GAGVSQSPSNKVTEKGKDVELRCDPISGHTALYWYRQSLGQGLEFLIYFQGNSAPDKSGLPSDRFSAERTGGSVSTLTIQRTQQEDSAVYLCASSLVVGSYEQYFGPGTRLTVT | –
